In article PMC2936869, “Secreted fungal sulfhydryl oxidases: sequence analysis and characterisation of a representative flavin-dependent enzyme from Aspergillus oryzae” (BMC Biochemistry, 2010):

T1: AoSOX1 (Aspergillus oryzae, UniProt Q2UA33)
T1 construct: gene AO090102000564; secreted full-length protein, 384 aa including predicted 19-residue signal peptide (removed); C-terminal His6 tag added but apparently cleaved off by host protease; expressed in Trichoderma reesei; N-glycosylated; MW 43959 by MS
T1 sequence (Q2UA33 20-384): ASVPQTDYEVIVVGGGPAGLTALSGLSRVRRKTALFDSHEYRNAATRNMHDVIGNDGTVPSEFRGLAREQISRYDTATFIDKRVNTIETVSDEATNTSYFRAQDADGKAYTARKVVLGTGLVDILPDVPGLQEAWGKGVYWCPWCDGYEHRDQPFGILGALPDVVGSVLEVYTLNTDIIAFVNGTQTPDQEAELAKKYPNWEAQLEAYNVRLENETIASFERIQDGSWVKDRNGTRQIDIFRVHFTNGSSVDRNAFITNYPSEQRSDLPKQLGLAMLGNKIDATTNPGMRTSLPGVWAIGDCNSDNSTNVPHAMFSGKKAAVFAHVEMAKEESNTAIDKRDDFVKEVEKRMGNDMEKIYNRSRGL

B1: AoSOX1 (Aspergillus oryzae RIB40) (protein)
chain: T1 sequence (Q2UA33 20-384)
notes: secreted full-length protein, 384 aa including predicted 19-residue signal peptide (removed); C-terminal His6 tag added but apparently cleaved off by host protease; expressed in Trichoderma reesei; N-glycosylated; MW 43959 by MS

Tests used:
AoSOX1 = biological target: T1, AoSOX1; assay: UV/visible absorption; cofactor released by thermal and chemical denaturation; type: binding; conditions: non-covalently bound cofactor; 20 mM Tris-HCl pH 7.0, 25 °C
[1] = substrate: N[C@H](CS)C(=O)O; assay: initial rates, Michaelis-Menten (HVA-peroxidase coupled assay, the paper's general assay); type: biochemical, Aspergillus oryzae; conditions: co-substrate O2, general assay in 50 mM potassium phosphate, 0.3 mM EDTA, pH 7.5
Description: (§1) initial rates, Michaelis-Menten (HVA-peroxidase coupled assay, the paper's general assay) on AoSOX1

[2] = substrate: N[C@@H](CS)C(=O)O; assay: as above; type: biochemical, Aspergillus oryzae; conditions: co-substrate O2, general assay in 50 mM potassium phosphate, 0.3 mM EDTA, pH 7.5
Description: as §1

[3] = substrate: OCCS; assay: as above; type: biochemical, Aspergillus oryzae; conditions: co-substrate O2, general assay in 50 mM potassium phosphate, 0.3 mM EDTA, pH 7.5
Description: as §1

Molecule | UV/visible absorption; cofactor released by thermal and chemical denaturation (AoSOX1) | Km [1] [mM] | Vmax/Km [1] [min⁻¹] | kcat [1] [s⁻¹] | Km [2] [mM] | Vmax/Km [2] [min⁻¹] | Km [3] [mM] | Vmax/Km [3] [min⁻¹]
Cc1cc2nc3c(=O)[nH]c(=O)nc-3n(C[C@H](O)[C@H](O)[C@H](O)COP(=O)(O)OP(=O)(O)OC[C@H]3O[C@@H](n4cnc5c(N)ncnc54)[C@H](O)[C@@H]3O)c2cc1C [FAD] | The cofactor was spectrophotometrically identified to be FAD after the cofactor was released | – | – | – | – | – | – | –
B1 | – | 1.55 ± 0.03 | 9780 | 5950 | 6.11 ± 0.13 | 21800 | 9.73 ± 0.08 | 13100
